# Source: patent US20120082688A1, “In Vitro Generation of Myeloid Derived Suppressor Cells” (MOUNT SINAI SCHOOL OF MEDICINE, priority 2008, published 2012)
# “Also recorded” adds a separate entry of the source.
# B1: macrophage colony-stimulating factor (protein, UniProt P07141 33-552, looked up)
# Macrophage colony-stimulating …: KEVSEHCSHMIGNGHLKVLQQLIDSQMETSCQIAFEFVDQEQLDDPVCYLKKAFFLVQDIIDETMRFKDNTPNANATERLQELSNNLNSCFTKDYEEQNKACVRTFHETPLQLLEKIKNFFNETKNLLEKDWNIFTKNCNNSFAKCSSRDVVTKPDCNCLYPKATPSSDPASASPHQPPAPSMAPLAGLAWDDSQRTEGSSLLPSELPLRIEDPGSAKQRPPRSTCQTLESTEQPNHGDRLTEDSQPHPSAGGPVPGVEDILESSLGTNWVLEEASGEASEGFLTQEAKFSPSTPVGGSIQAETDRPRALSASPFPKSTEDQKPVDITDRPLTEVNPMRPIGQTQNNTPEKTDGTSTLREDHQEPGSPHIATPNPQRVSNSATPVAQLLLPKSHSWGIVLPLGELEGKRSTRDRRSPAELEGGSASEGAARPVARFNSIPLTDTGHVEQHEGSSDPQIPESVFHLLVPGIILVLLTVGGLLFYKWKWRSHRDPQTLDSSVGRPEDSSLTQDEDRQVELPV
# notes: murine recombinant cytokine added to M2 cocktail
# B2: granulocyte macrophage colony stimulating factor (protein, UniProt P01587 18-141, looked up)
# Granulocyte-macrophage …: APTRSPITVTRPWKHVEAIKEALNLLDDMPVTLNEEVEVVSNEFSFKKLTCVQTRLKIFEQGLRGNFTKLKGALNMTASYYQTYCPPTPETDCETQVTTYADFIDSLKTFLTDIPFECKKPGQK
# notes: colony-stimulating factor family cytokine added to M2 cultures
# Assays:
# [1] = tested on: HS-MDSC- and TD-MDSC-mediated suppression of T-cell proliferation; test: Suppression assay with iNOS inhibitor / arginase inhibitor: MDSCs co-incubated with B6 splenocytes, anti-CD3/anti-CD28, [3H]-thymidine; assay type: cell-based, mouse
# Experimental: The suppressive activity of MDSCs was assessed either by co-culturing 1×10^5 129SvEv (using B6 for HSC-MDSCs comparison) splenocytes with various numbers of CD115^+ cells or […] in the presence of anti-CD3/anti-CD28 (0.5 μg/ml) or by co-culturing 2×10^5 129SvEv splenocytes (responder) with an equal number of irradiated (25 Gy) BALB/c splenocytes (stimulator) in the presence of various numbers of CD115^+ or CD115^− cells for 4 days. [^3H]-thymidine was added for the last 8 hours of incubation. For Treg induction, 4×10^6/well of 129SvEv (B6 for HSC-MDSCs) splenocytes and 1×10^6 CD115^+ or CD115^− cells were cocultured for 5 days in the presence of anti-CD3/anti-CD28 (0.5 μg/ml). Foxp3 expression was determined by intracellular staining and NO level in the supernatant was measured by Greiss reagents (Sigma-Aldrich, St. Louis, Mo.).
# To delineate which of the aforementioned suppressive mechanism(s) play a major role, the functional activity of HS-MDSCs was evaluated when specific pathway(s) were interfered. To evaluate the role of iNOS, HS-MDSCs (developed from Lin− B6 BM cells) or TD-MDSCs were co-incubated with B6 splenocytes at a 1:2 ratio in the absence or presence of various concentrations of L-NMMA (L) or NOHA (N), or combination of L-NMMA and NOHA. Cells were stimulated with anti-CD3/anti-CD28 and [3H]-thymidine was pulsed for the final 8 hours of a 3-day culture.
# HoxB4 ES cells = test: Differentiation of HoxB4 ES cells on OP9 stroma in M2 cytokine mix with added cytokines, FACS; assay type: cell-based, mouse
# Experimental: Next, EB-derived cells were subjected to further differentiation by co-culturing them with OP9 stroma, an M-CSF-deficient cell line that has been widely used for in vitro differentiation of ES cells. For this, day 6 EBs (except otherwise specified) were trypsinized, and dissociated cells were seeded onto semiconfluent OP9 monolayers (irradiated immediately before coculture) at a density of 1×10^5/ml (2 ml/well, 6-well plate), and cultured in medium containing IMDM, 15% FCS (BenchMark, Gemcell), 2 mM L-glutamine, 100 U/mL penicillin and 100 μg/mL streptomycin, 1 ug/ml doxycycline, 1.5×10^−4M MTG, plus M1 cytokine mix composed of 1% c-kit Ligand (KL; CM), […] murine IL-6, and 0.5% WEHI (IL-3, CM). 2 days later, the medium was removed and replaced with 3 ml of fresh medium containing M2 cytokine mix consisting of 1% KL supernant, 0.5% murine thrombopoietin (TPO, CM), 40 ng/ml murine VEGF, 50 ng/ml murine Flt-3L or with medium containing M2 plus 10 ng/ml murine M-CSF (or M2+M-CSF) (all mouse recombinant cytokines were purchased from Peprotec Inc.), and medium was changed every other day thereafter. Unless otherwise specified, non-adherent and loosely attached cells were harvested after 10 days coculture in M2+M-CSF and used for morphologic, phenotypic, developmental, and functional analysis.
# To enhance the production of ES cell-derived myeloid cells, additional cytokines were tested, including the colony-stimulating factor family members M-CSF and GM-CSF. […] For experiments in FIGS. 1C and D, Hoxb4 ES cells were differentiated with the same procedure as described in FIG. 1A, but in the last step cells were cultured for 10 day in M2 or M2 supplanted with M-CSF or GM-CSF (FIG. 1C) or M2 plus various concentration of M-CSF (FIG. 1D).
# [2] = cytokine added to M2 cultures, 10 days
molecule,measurement,setting,value
"CNC(=N)NCCC[C@H](N)C(=O)O [L-NMMA, N^G-monomethyl-L-arginine]",reversal of MDSC suppression of T cells,"[1]; 5 μM, MDSC:splenocyte 1:2, P<0.05 HSC MDSC, P<0.01 TD-MDSC",substantially reversed
same,reversal of suppression of HS- and TD-MDSCs against T-cell proliferation,"[1]; various concentrations, dose-dependent manner",partially but significantly reversed
N=C(NO)NCCC[C@H](N)C(=O)O [NOHA],interference with suppressive activity of HSC-MDSC or TD-MDSC,"[1]; 500 μM, MDSC:splenocyte 1:2, P>0.05",did not interfere significantly; also recorded: minimal effects
B1,production of both CD115^+ populations,"HoxB4 ES cells; M2 plus cytokine, 10 days, dose-dependent",significantly augmented
same,increase of frequency of both CD115 positive populations,HoxB4 ES cells; added along with M2,over 2 fold
same,percentages of CD115^+ cells,"HoxB4 ES cells; higher concentration, 20 ng/ml",decreased
B2,change of CD115+Ly-6C^+ cells,HoxB4 ES cells; [2],dramatic decrease
same,change of CD115^−Ly-6C^+ cells,HoxB4 ES cells; [2],marked increase
